Measurements taken from the DeepSol protein solubility set.

Assay: soluble on expression in E. coli; label from the status in PepcDB or PDB records

Sequence | soluble on expression in E. coli
MSLRARYKQLVDTFAADIRTGILAPGTRLPTHRELAAREGLALVTASRVYAELEAMGLVSGETGRGTYVRETALPPGQGVDQPATAPGTLDLNFNYPALPGQAELLRSALRQLAATGDLEALLRYQPHAGRSHERATVARYLAGHGLVVEGEQVLLVSGAQHGLSTTLMALLRPGDVVAVDALTYPGFKVVAEAHGLELLAIPLSEQGPDLEAFERLCQRRRVRAVYAMPTLHNPMGWVLDLAWRQRLVAIGRAHGLLIIEDAAYAFLAQDPPAPLAALAPEITVYISGFSKNVATGLRVGYVVAPPAWVALIERAIRTSTWNTPGVMTAMACAWIEDGTVARLEHQKREDAQARQALAREALAGLAYVSHPNSYFLWLPLPEEVRADQVAMALLREKVSVSTAEPFVGAGPVPHAIRLALGSVAMADLGVALARVRQVIGRYAFEGHHHHHH | soluble
MSLRASGSGANPDKTWESRSLPIGNGSLGANILGSVAAERITLNEKTLWKGGPNTSKGAEYYWDVNKQSAGVLKEIRQAFLDEDKEKAAQLTRNNFNGLAAYEEKDETPFRFGSFTTMGELYVETGLNELRMSNYRRILSLDSAMVVVQFDKDGVQYQRKYFISYPDSVMVMKFTANQSGKQNLILSYCPNSEAKSNLRADGKDGLVYTGVLDNNGMKFAFRIKAIHKGGTLEAENDRLIVKGADEVVFLLTADTDYKMNFNPDFKDPKTYVGNDPEQTTRIMMDQAVQKGYDELYRNHEADHTALFNRVRLQLNPDISSPNLPTYQRLANYKKGTPDYQLEQLYYQFGRYLLIASSRPGNMPANLQGMWHNNLDGPWRVDYHNNINIQMNYWPACSANLSECTWPLIDFIRSLVKPGEQTAQAYFNARGWTASISANIFGFTAPLSSNMMSWNLNPTAGPWLATHIWEYYDYTRDKKFLKEIGYDLIKSSAQFAVDHLWHKPDGTYTAAPSTSPEHGPIDEGVTFAHAVVREILLDAIQASKELGIDSKERKQWEKILDKLVPYRIGRYGQLMEWSTDIDDPEDEHRHVNHLFGLHPGHTISPITTPKLAEAAKVVLEHRGDGATGWSMGWKLNQWARLQDGNHAYKLYGNLLKNGTLDNLWDTHAPFQIDGNFGGTAGITEMLLQSHMGFIQLLPALPDAWKNGSITGICAKGNFEISISWKEGQLDKATILSGSGTPCNVRYGDKTLSFSTVKGKKYEITLVGNLLKLEGHHHHHH | soluble
MSLRDLPGQTGVQFTTGGVNHFLSWKSGGERHYFTSLAFTHTNRNRTCWLYGLDYQIKEYTYENKAIPKAQFTGELGYFIPVLSDKGRNVCFRIGLSVLGGFETVNWGTSLLPDGAAVTNGDCFIYGGGLTAAFDVWLTDRIILLMQVKERAFFGTDAGNFHTQIGLGVRLIINEGHHHHHH | not soluble
MSLRERVKAHPKPADEQLLTRIRDHSISMLLNFLNSMFDGVDDSFFELANHAHTNNEQNRYFEAMREIRIKRKGIENHFQQELARLFNQPPSQHKTSESLSDNVDVDVLSLVQNDALEESVAINSMISKARANFSGSLLQFQTRVSSVYGETNEENAVNPLDPEHICKAFSDACIGLDIEIKEKLIVYKQFDRYVMGNLVECLEEANKIMIQAGVMPNLKYTAKKSRVTPRSTSDVSARPLEAQSDANGYDGAGDVFSQVQELLSALRNTASNPEQQQGDPNTGAGGRQAPPPGNVQFIADADLLSILSRLQHSVRTENLAEGPVVALDLRTAVQGLLSEESQKSGKATALDQIDEDLINLVSMLFEFILDDYNLSAPIQVLISRLQIPILKVAIRDKSFFSKPSHPARKLLNALAKAGIGWSDASEKKRDKLYEQIHRAVQRILEEFNGESELFEEIYQEFSQYLSREERKAKLVEQRTKEAEIGRVKSHKAHQVVEQILSEKIAAQPLPPVAVELLRGGWSRVMFLAYLKEDTEHRLNQCTKVVDELTWCLQPHAEVEARQRWVKVVPQLLKNLKAGLKEVSYNSAKLEHMLGELKKALTETFKQQSITSAQNDAPKPPAPVAAVIEQKLTPAIKTAVERQSEYEDAALAEYLTKIDEMECGAWIEFSLVNGTRFRCKLSTKIEDSDTYIFVNRLGLKVVEKTRGELAHELRKGRIKALEEGLLFDRAMNAVIGNLRKMSGEGHHHHHH | soluble
MSLRFLADIEEYIGFEIPKIEAPSQEEVARKKPEFLAKLNDRPESKKDKSEELNKDIMKLYFNGGKKKKIRAVDFVGTIAKIDGVSADDIGIITIMDNASYVEILNGKGPHVLKVMKNTTVKGKQLKVNKANKEGHHHHHH | not soluble
MSLRHSGAPLSPRNVCPMKTIAPCMAAMMLLSGCNGVPTSYVSDPVYSQAFVVTSGAPLPMLLMASAIQWNEDYAVTAKHTPFLRNVVHEGLGDVVFFKHKASSVPHWRQYVPGEAVTAVGFNSFMMPMQGKGHALSSLVRLEGTPGSVFYSVHDGPITKGMSGGPVFADDGKVVGINVAIIPTDEINAGKRPDLVGKDRISVFMSFSEIDKEWRRYQYLLAHKAKPKAPAAVKGYVAVAAKEGHHHHHH | not soluble
MSLRILIVDDEKLTRDGLIANINWKALSFDQIDQADDGINAIQIALKHPPNVLLTDVRMPRMDGIELVDNILKLYPDCSVIFMSGYSDKEYLKAAIKFRAIRYVEKPIDPSEIMDALKQSIQTVLQHQAQQDSEGHHHHHH | soluble
MSLRILVIEDEISLNKTIIDNLNEFGYQTDSSENFKDGEYFIGIRHYDLVLANWTLPDGDGAELVNTIKHKSPRTSVMIMSSKTDKETEIKALKAGADDFVKKPLDFDILLARIEARLRLGGTNVIKIEDLVIDPDEEKITYKGQDIELKGKPFEVLTHLARHSDQIVSKEQLLDAIWEEPELVTPNVIEVAINQIRQKMDKPLNISTIETVRRRGYRFCFPKKSEGHHHHHH | soluble
MSLRIYFDKILERASPKVERQALTHVERLAMVRRHGDFSLAYSTAVQQKLSYFGDADGYIAFGTKMKHHFALGDPVAAPARRPDFIKRFVETAGDPWFVQISEETARVLAGLGYKVNRLGIDTSLVLSEHDFSGKRNETVRYSERWLLKKGFSFEEDKRTVFLDEIARLSENWRGDRIVKRWEMGFLNRPFYDQLGTDMRRFVLHGPDGELIALLDFDPLFRDGKVIGYTTAFKRKHIDASPHAEIGLTKFAVDRFREEGISVVTLGLSPLVDVTPSGFAESDFWRNTFQRAYASPWVNRRRFNLQGQAAFKRRFHGKEEPVYIAFRKGTYVEMLGLLRLVKAIEGHHHHHH | not soluble
MSLRKIHVTIIAPYEGLAETFKRIQNEFEHLDMTIHIADLQQSLPLLTTEVQAQTDIFISRGGTAKVIRTRTEKPVVEVPISGFDILRMILLIQAEREQTEIIAFENISLSFTKVTELIETDIPITAVMKEEEVEPAIIAAKAAGRKMIVGDAITTSLANKHGLEGILITSGEESVRTALEQADLLGRKMNDSKQEGHHHHHH | soluble
MSLRKKIAAFGEVMMRLQVPGYELLSQANTLNYSFSGTGVNVVAALSHLGHEGLLISTLPENSVGDAAVSYIQKLGIQTSLVSRGGKYVGMYFLENGFGARASRVTYSNRLESSFNTASEEIYQFEEIAKEIDIVHFCGITLAMNDTVRHHMKSLARAVKENGGTVVFDCNYRPSLWGEDGYEQAKPHYEEMLGLADIVMMNEKDAMFVLGIKTEETEREAQLVDLIPKVAETYHIATIAGTHRSINSDNTHSLRGFICKDGTFTFAKTLTFSVYDRIGAGDAYTSGIIHGEIKEFAPEKAVSFASAAGMLAHTIVGDTPMSSEKDILRAMTASVGDVEREGHHHHHH | soluble
MSLRKRPDSVTPDLLHVDRSAMGPLAERMRPRTLDDMVGQKRLLAPDSALRRAVESGRVHSMILWGPPGCGKTTLALLLAHYADAEFNAISAVLSGLPEVRQVLAEAAQRFAGGRRTVLFVDEVHRFNKAQQDAFLPHIERGTILFVGATTENPSFELNSALLSRCRVHVLEGVSPQDIVEALQRALHDAERGLGQQTIQVSEASLLEIASAADGDVRRALTLLEIAAELATGEGGEITPRTLLQVLADRTRRFDKNGEQFYDQISALHKSVRSSNPDAALYWLTRMLDGGCDPTYLARRLTRMAIEDIGLADPRAQGMALEAWDIYERLGSPEGELAFAQLVLYLASTAKSNAGYAAFNQARAEVRATGTQEVPLHLRNAPTKLMKTLGYGQDYQYDHDAEGGIALDQTGFPDAMGERVYYNPMPRGMEIKLKEKLDRLRETRGQAREGHHHHHH | soluble
MSLRLGVTGLSRAGKTVFISSLVHNLLNGGRLPLFEAMRSGRVSNVRLEPQPDDAIPRFQYEDHIQALVRDRLWPDSTRAISELRITLDYQSASGWGRWFSAGKLSIDIVDYPGEWLLDLPLLSQDYKQFSDATVALAGSGIRAELAQEWLAIASSLDINAPADEMTARRLAESFAAYLKACKSDERSLSTLPPGRFLMPGDLEGSPALTFAPLPGVTDAKAPKGSLRAMMERRYDAYKSIVVKPFFREHFARLDRQIVLIDTLQAVNRGPEAVQDLERALGDVLACFRPGTNSILSSLIRRRIDKVLIAATKADHLHHESHDRLERLTRRLVDRAITTIGMNGAGIEVMALASVRATREASVRQDGHELPVIVGTPMAGETINGEIFDGNRKTAIFPGDLPEDPEPLFRSIDQDGDKATLPDVNVVRFRPPNIDEPGSGGIRLSVPHIRLDRAMQFLFGDKLAEGHHHHHH | soluble
MSLRLPPPDARPIRVVCISDTHTLELADMPDGDLLIHAGDLCNDGSAKEIQAAVDWLRKLPHPQKVVICGNHDSYFDIRSRRFEDRDQSLATVSSSTASLRSVDDFDFPHCIDWGDIHYLQHSSVTVTFPPLPQTPSSSSALLASRPRSLTIYGAPQIPAIVPFGPEHAFAYPAHHDAWSGTIPPNTDIMVTHTPPQSHLDLSPVFSTGCPFLLSEAWRIRPALHVFGHVHAAYGREPVYWDEAQKAWERICSSRREGHHHHHH | not soluble
MSLRLQFQLKVDGLEDESLVVRGFEGQESLSDSVWRCEPCYGFRYQVDLASALSNLTAEQFVDQTAHLTILRDGQVVQQINGIVRQLSKGDTGHRHTFYSLTLVPALERLSLRSNSRIFQQQSVPEIISILLQEMGIEDYAFALKRECAQREFCVQYRETDLQFLHRIAAEEGLVYSHLHEAQKHTLLFTDSSDSQPKLAKPVPYNALAGGEINLPYVVDLQFKTTAQVSHTELKDYSFKKPAYGFTQRTQGKDIAYQQPNYEHFDAPGRYKDDANGKAFSQIRLEYLRRDALLADAKSDEPLLLAGVRFDLQDHLDHAMNRDWLVVQANHQGTQPQALQEEGGSGATTYSNQLKLIPAHITWRARPCAKPQVDGPMIATVVGPQGEEIYCDNFGRVKVHFPWDRYSSSNEKSSCWVRVAQEWAGSQYGSMAIPRVGHEVIVSFLNGDPDQPIITGRTYHATNTAPYALPDHKTKTVLRTETEGHHHHHH | soluble
MSLRMNAMKIISVNVGQPTALQVGQRTAVSGIRKHPVPGRVQVGEKGLEGDHVLNRRYHGGPDQAVYVYTREDYDHWTELLGRALEPGAFGENVLISGAESAEVRVGERFLLGAVEIEVTAPRLPCSTLGARMEDAGFVKRFKAARRPGFYARVLQSGDIGRGDPVTRTPAPDGAPTIGELFDADFAKSHDPAELRAWLTFPLGKRQRKEVEKWLAKAEGEGHHHHHH | soluble
MSLRSAYLSTESKIVLDVISVSDTHGWIYGHRHLPEYGDYGTLLSYIERTRQKALESEGRSVLAVDAGDLVEGTGLSDLTKVKGEKILEAASYIGFDLQTIGNHESYYKETTDYIHSKVEALFGDRYITTNVFMRDTNVPVGSGRYKYLVLPTGLRVLMLGFLFHTSPYDGVYTIPAREAIASQEITGVLEKYKYQTDLLVLACHIPTYDLEISEIVTELRAFYNQINYTIPIIIIAGHYHQIKNTYCMDGQDKQCYIVEGGCYLRFMQHVTYEFKPMTYSHEGNTYTGYQFSSVDYSLPYNEGHHHHHH | soluble
MSLRSPLEPGAPDALLTVIVIVEHLDHKEEVIVQGREIVPSMDGHFDTIQELNSRFTESAPREKIEIGNRERPFKLHVVNVGDSRAMLVTGESYAALTRDHVPDDPGEWRRIEETGDQVVYSDGCARIRGLAMSRSFGDFVAKEVRTPSPITAKPDIRRFYATWNDVLLLYSDGLHVDGEDWRTNFGMAKQCISSVPKISDVAVCLLQQAYGGGSSDNITVLATKFRKFRRQTSAKLRIFGGLAKSFSEEGHHHHHH | not soluble
